Laboratory results reported in article PMC4031500.

Target: chB6 (Bu-1), chicken B-lymphocyte allotypic marker (chicken (endogenous in DT40))
Test: non-reducing against reducing SDS-PAGE with Western blot; chB6 immunoprecipitated from DT40 lysate, SDS-PAGE without reducing agent, blot with anti-chB6 peptide antibody; compared with membrane fractions run with 2-mercaptoethanol

stoichiometry N: 2
Substance: chB6 (Bu-1), chicken B-lymphocyte allotypic marker (natural protein)
